# B1: FS22-172-003-AA/FS28-256-271 (bispecific antibody, human IgG1, kappa, L234A L235A, V domains shown)
# VH: EVQLLESGGGLVQPGGSLRLSCAASGFTFTHTYMSWVRQAPGKGLEWVSAISPTYSTTNYADSVKGRFTISRDNNKNTLYLQMNSLRAEDTAVYYCARYNAYHAALDYWGQGTLVTVSS
# VL: EIVLTQSPGTLSLSPGERATLSCRASQSVSSSYLAWYQQKPGQAPRLLIYGASSRATGIPDRFSGSGSGTDFTLTISRLEPEDFAVYYCQQTVPYPYTFGQGTKVEIKR
# notes: IgG1 mAb^2 with LALA; also called anti-human CD137/MSLN mAb^2
# B2: FS28-024 (mAb in G1-AA format) (antibody, human IgG1, V domains shown)
# VH: EVQLLESGGGLVQPGGSLRLSCAASGFTLSYSSMSWVRQAPGKGLEWVSFITPSTGYTHYADSVKGRFTISRDNSKNTLYLQMNSLRAEDTAVYYCARRALTFDYWGQGTLVTVSS
# VL: EIVLTQSPGTLSLSPGERATLSCRASQSVSSSYLAWYQQKPGQAPRLLIYGASSRATGIPDRFSGSGSGTDFTLTISRLEPEDFAVYYCQQASSYPLTFGQGTKVEIK
# Experiments:
# [1] = target: T1, hMSLN-His-Avi (human, UniProt Q13421 296-598, single biotin on the Avi tag in the biotinylated form); assay: ratio of SPR KDs
# T1 construct: Monomeric; also called human MSLN-His-Avi; hMSLN-Avi-His
# T1 sequence (Q13421 other isoform, or with tags, fused parts or gaps): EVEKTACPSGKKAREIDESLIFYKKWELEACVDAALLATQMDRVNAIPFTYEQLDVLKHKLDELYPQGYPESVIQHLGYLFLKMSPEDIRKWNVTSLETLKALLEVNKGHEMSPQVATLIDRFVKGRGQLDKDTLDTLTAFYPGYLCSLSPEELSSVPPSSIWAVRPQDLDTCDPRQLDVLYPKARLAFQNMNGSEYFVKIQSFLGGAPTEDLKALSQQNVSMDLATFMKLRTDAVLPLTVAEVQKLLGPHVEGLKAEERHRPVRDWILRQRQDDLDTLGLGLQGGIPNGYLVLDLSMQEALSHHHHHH
# [2] = target: T1, hMSLN-His-Avi; assay: ratio of SPR KDs; remark: listed apart in the source
# [3] = target: T2, human CD137 on primary human CD8+ T cells (human, UniProt Q07011 24-255); assay: cell-based or functional assay
# T2 sequence (Q07011 24-255): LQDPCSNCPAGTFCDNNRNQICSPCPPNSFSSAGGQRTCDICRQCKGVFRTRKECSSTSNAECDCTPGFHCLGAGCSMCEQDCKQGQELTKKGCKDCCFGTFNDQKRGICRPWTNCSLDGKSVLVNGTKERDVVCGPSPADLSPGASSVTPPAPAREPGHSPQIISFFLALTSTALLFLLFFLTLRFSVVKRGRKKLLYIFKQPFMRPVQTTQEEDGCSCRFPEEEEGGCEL
# [4] = target: T2, human CD137 on primary human CD8+ T …; assay: cell-based or functional assay; remark: listed apart in the source
# [5] = target: T2, human CD137 on primary human CD8+ T …; assay: cell-based or functional assay; remark: listed apart in the source
# [6] = target: T3, endogenous cell surface human MSLN (human, UniProt Q13421 296-598); assay: flow cytometry, AsPC-1 cells
# T3 construct: whole, on cells; The cell line is named under assay; also called cell-surface MSLN on NCI-H226, OVCAR-3 and AsPC-1 cells
# T3 sequence (Q13421 other isoform, or with tags, fused parts or gaps limits assumed): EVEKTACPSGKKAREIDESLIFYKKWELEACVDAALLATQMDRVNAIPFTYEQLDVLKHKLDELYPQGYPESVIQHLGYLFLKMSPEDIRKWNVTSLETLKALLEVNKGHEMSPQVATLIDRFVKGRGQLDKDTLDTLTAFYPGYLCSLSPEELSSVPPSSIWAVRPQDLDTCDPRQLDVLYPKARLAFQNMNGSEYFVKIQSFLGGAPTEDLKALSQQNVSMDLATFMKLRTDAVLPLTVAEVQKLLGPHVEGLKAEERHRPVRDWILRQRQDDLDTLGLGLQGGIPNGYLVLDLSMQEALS
# [7] = target: T3, endogenous cell surface human MSLN; assay: flow cytometry, OVCAR-3 cells
# [8] = target: T1, hMSLN-His-Avi; assay: SPR, hMSLN-His-Avi immobilised
# [9] = target: T1, hMSLN-His-Avi; assay: SPR, hMSLN-His-Avi in solution
# [10] = target: T3, endogenous cell surface human MSLN; assay: flow cytometry, NCI-H226 cells
# [11] = target: T4, cMSLN-His-Avi (cynomolgus, single biotin on the Avi tag in the biotinylated form); assay: SPR steady state, antigen immobilised ~50 RU
# T4 construct: Monomeric; also called cyno MSLN-His-Avi; cMSLN-Avi-His
# T4 chain: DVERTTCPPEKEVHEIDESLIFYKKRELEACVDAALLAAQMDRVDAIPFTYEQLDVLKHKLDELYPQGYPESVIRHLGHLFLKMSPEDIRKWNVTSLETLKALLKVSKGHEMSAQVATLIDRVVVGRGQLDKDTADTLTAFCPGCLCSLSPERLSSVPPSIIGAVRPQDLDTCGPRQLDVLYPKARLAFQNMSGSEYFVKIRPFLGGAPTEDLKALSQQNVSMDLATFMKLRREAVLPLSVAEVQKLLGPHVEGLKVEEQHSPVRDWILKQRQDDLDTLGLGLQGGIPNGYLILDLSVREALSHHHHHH
# Procedure: The association time was 1000 sec to steady state and the dissociation time was 30 sec. Running buffer was HBS-EP (GE Healthcare BR100188). Flow cells were regenerated by injecting Glycine-HCl pH1.5 at a flow rate of 30 μl/min for 30 seconds. Data were analysed by double referencing against a flow cell which was intentionally left blank (no antigen coating). Steady state affinity model was used to analyse kinetic data using the BiaEvaluation software version 3.2.
# [12] = target: T1, hMSLN-His-Avi; assay: SPR, mAb2 captured on Protein G, hMSLN-His-Avi in solution
# Procedure: (§1) The association time was 5 min and the dissociation time was 5 min. Running buffer was HBS-EP (GE Healthcare BR100188). Flow cells were regenerated by injecting Glycine-HCl pH2.1 at a flow rate of 30 μl/min for 15 seconds. The data was analysed as described in Example 7.1.
# [13] = target: T5, hCD137-mFc-Avi (human; mouse, UniProt Q07011 24-186, one biotin on each Avi tag in the biotinylated form); assay: SPR, mAb2 captured by anti-human Fab, hCD137-mFc-Avi in solution
# T5 construct: also called human dimeric CD137; human CD137-mFc-Avi
# T5 sequence (Q07011 24-186): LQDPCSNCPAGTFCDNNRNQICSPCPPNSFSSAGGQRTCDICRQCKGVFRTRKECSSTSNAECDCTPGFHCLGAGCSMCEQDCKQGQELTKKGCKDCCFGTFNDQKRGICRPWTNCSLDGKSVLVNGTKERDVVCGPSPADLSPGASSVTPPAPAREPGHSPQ
# Procedure: A Biacore CM5 chip was coated with anti-human Fab using a Human Fab Capture Kit (GE Healthcare 28958325) according to manufacturer's conditions, to a surface density of approximately 9000 RU. […] The association time was 5 min and the dissociation time was 5 min. Running buffer was HBS-EP. Flow cells were regenerated by injecting two repeat injections of 10 mM glycine-HCl at pH 2.1 at a flow rate of 30 μl/min for 30 seconds. Data analysis was performed as described in earlier examples (see e.g. Example 7.1).
# [14] = target: T1, hMSLN-His-Avi; assay: SPR, hMSLN-His-Avi immobilised ~100 RU, mAb2 injected; immobilised human MSLN (antigen capture), not MSLN in solution
# Procedure: 7.1 Binding of CD137/MSLN mAb2 to Human MSLN Under Avid Conditions—Antigen Capture Method Binding of all mAb^2 to MSLN immobilised on a BIAcore chip was tested to determine the binding affinity to human MSLN under avid conditions, where a high concentration of immobilised antigen is available to allow the antibody to bind avidly. […] The association time was 5 min and the dissociation time was 10 min. Running buffer was HBS-EP (GE Healthcare BR100188). Flow cells were regenerated by injecting Glycine-HCl pH1.5 at a flow rate of 30 μl/min for 30 seconds. Data were analysed by double referencing against a flow cell which was intentionally left blank (no antigen coating). The binding kinetics were fitted with a 1:1 Langmuir model to generate binding association (k_a) and dissociation (k_d) rates. Equilibrium binding constants (K_D) were calculated by dividing the dissociation rate by the association rate for each sample. Data analysis was performed with BiaEvaluation software version 3.2.
# [15] = target: T4, cMSLN-His-Avi; assay: SPR
# Procedure: as §1
# [16] = target: T6, human CEACAM-5-His-Fc (human, UniProt P06731 35-685); assay: ELISA, antigen coated 1 µg/ml
# T6 sequence (looked up): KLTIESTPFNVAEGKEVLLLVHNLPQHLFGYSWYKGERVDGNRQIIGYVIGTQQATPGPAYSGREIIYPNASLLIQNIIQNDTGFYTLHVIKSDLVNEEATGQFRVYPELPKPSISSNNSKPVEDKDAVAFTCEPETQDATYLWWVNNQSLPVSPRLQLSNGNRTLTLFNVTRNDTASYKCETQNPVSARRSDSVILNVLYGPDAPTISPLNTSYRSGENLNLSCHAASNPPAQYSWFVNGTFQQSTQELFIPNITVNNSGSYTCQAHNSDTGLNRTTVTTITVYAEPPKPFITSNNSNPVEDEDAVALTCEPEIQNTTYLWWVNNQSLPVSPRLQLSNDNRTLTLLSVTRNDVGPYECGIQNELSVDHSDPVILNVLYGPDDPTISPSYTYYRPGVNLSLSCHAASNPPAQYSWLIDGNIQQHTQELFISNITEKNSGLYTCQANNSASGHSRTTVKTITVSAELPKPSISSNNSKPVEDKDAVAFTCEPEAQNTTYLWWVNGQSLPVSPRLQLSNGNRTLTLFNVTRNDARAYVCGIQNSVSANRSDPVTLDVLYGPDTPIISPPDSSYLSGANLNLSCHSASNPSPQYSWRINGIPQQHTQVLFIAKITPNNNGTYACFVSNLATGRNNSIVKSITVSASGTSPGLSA
# Procedure: (§2) Binding of the anti-MSLN mAbs, tested at a concentration range of 0.02 to 1000 nM (3-fold dilutions) was detected using anti-human Fab-HRP (Sigma, A0293).
# [17] = target: T7, human E-Cadherin (human, UniProt P12830 155-707); assay: ELISA, antigen coated 1 µg/ml
# T7 sequence (looked up): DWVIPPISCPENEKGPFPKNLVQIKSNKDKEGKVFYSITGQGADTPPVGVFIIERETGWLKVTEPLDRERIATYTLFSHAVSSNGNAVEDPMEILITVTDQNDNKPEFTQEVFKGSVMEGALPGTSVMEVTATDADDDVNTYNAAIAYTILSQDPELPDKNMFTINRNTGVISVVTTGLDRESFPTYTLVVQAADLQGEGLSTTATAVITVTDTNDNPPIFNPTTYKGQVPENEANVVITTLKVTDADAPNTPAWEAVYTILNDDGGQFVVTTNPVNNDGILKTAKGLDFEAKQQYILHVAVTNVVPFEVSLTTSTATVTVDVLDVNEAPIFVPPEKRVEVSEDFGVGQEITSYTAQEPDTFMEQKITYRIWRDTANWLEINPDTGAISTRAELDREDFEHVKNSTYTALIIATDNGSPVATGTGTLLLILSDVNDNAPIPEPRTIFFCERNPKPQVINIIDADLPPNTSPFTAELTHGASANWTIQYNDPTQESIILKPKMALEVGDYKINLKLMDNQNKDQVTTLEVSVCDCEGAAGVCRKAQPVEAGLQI
# Procedure: as §2
# [18] = target: human Thrombomodulin (human, UniProt P07204 19-515, limits assumed); assay: ELISA, antigen coated 1 µg/ml
# Sequence of human Thrombomodulin (P07204 19-515 limits assumed): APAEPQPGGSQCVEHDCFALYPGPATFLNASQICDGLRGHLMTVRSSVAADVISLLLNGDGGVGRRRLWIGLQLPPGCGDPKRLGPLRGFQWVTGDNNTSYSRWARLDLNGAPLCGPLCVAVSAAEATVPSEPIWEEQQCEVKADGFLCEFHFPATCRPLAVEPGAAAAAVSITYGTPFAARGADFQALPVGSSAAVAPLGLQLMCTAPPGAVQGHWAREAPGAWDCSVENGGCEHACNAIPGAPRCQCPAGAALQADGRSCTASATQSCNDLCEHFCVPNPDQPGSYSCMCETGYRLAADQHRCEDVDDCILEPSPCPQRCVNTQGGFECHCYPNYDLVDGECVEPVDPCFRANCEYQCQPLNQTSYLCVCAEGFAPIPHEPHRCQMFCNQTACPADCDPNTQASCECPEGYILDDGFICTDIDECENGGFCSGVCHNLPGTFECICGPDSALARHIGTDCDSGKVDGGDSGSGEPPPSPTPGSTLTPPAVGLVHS
# Procedure: as §2
# [19] = target: T8, human EpCAM-hFc (human, UniProt P16422 24-265, limits assumed); assay: ELISA, antigen coated 1 µg/ml
# T8 sequence (looked up): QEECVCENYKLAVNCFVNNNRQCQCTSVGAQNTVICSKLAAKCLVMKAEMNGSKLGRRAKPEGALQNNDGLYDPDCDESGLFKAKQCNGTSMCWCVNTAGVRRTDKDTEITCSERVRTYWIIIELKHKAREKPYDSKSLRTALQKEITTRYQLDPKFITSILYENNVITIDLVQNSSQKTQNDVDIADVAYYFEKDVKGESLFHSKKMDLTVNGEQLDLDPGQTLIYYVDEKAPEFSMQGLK
# Procedure: as §2
# [20] = target: T1, hMSLN-His-Avi; assay: ELISA, hMSLN-His-Avi coated 1 µg/ml
# [21] = target: T1, hMSLN-His-Avi; assay: SPR, hMSLN-His-Avi immobilised at 50 RU
# [22] = target: T1, hMSLN-His-Avi; assay: SPR, hMSLN-His-Avi immobilised at 100 RU
binder,measurement,setting,value
B1,ratio of KD in solution/immobilised,[1],3
same,KD ratio in solution/immobilised human MSLN,[2],3
same,"fold change of IL-2 EC50 with soluble MSLN against none, NCI-H226 co-culture",[3],3 fold
same,"IL-2 release EC50, NCI-H226 co-culture, +2 nM sMSLN",[4],0.139 nM
same,"IL-2 release EC50, NCI-H226 co-culture, +20 nM sMSLN",[4],0.353 nM
same,"IL-2 release EC50, NCI-H226 co-culture, no sMSLN",[4],0.117 nM
same,"IFNγ production EC50 (96 h), AsPC-1 co-culture, Donor G",[5],0.147 nM
same,"IFNγ production EC50 (96 h), AsPC-1 co-culture, Donor H",[5],0.164 nM
same,"IFNγ production EC50 (96 h), AsPC-1 co-culture, Donor J",[5],0.344 nM
same,"IFNγ production EC50 (96 h), NCI-H226 co-culture, Donor G",[5],0.0332 nM
same,"IFNγ production EC50 (96 h), NCI-H226 co-culture, Donor H",[5],0.0732 nM
same,"IFNγ production EC50 (96 h), OVCAR-3 co-culture, Donor H",[5],0.084 nM
same,"IL-2 production EC50 (72 h), AsPC-1 co-culture, Donor C",[5],0.778 nM
same,"IL-2 production EC50 (72 h), AsPC-1 co-culture, Donor D",[5],0.841 nM
same,"IL-2 production EC50 (72 h), NCI-H226 co-culture, Donor C",[5],0.111 nM
same,"IL-2 production EC50 (72 h), NCI-H226 co-culture, Donor D",[5],0.112 nM
same,"IL-2 production EC50 (72 h), NCI-H226 co-culture, Donor E",[5],0.0722 nM
same,"IL-2 production EC50 (72 h), NCI-H226 co-culture, Donor F",[5],0.0723 nM
same,"IL-2 production EC50 (72 h), OVCAR-3 co-culture, Donor E",[5],0.145 nM
same,"IL-2 production EC50 (72 h), OVCAR-3 co-culture, Donor F",[5],0.0693 nM
same,EC50,[6],0.293 nM
same,EC50,[7],0.306 nM
same,Kd,[8],5.9 nM
same,Kd,[9],18.2 nM
same,EC50,[10],0.304 nM
same,fold difference of binding to cMSLN against hMSLN,[11],≤ 3 fold
same,Kd,[12],18.2 nM
same,Kd,[13],1.26 nM
same,Kd,[14],5.9 nM
B2,fold lower affinity for cyno MSLN than for human MSLN,[15],~5 fold
same,binding result,[16],no binding (tested: 1000 nM)
same,binding result,[17],no binding (tested: 1000 nM)
same,binding result,[18],no binding (tested: 1000 nM)
same,binding result,[19],no binding (tested: 1000 nM)
same,EC50,[20],~0.5 nM
same,maximum binding signal,[20],3
same,Kd,[21],0.77 nM
same,Kd,[22],0.23 nM
